According to the supplement of paper PMC9170038:

Test system: MS2 coat protein
Experiment: apparent KD of MS2 coat protein; higher = weaker reporter binding
Conditions: Eterna round: R107
Method: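 RNA-MaP round R107: designed RNA switches with theophylline, tryptophan, arginine or FMN aptamers are transcribed on-chip within common flanks. They are titrated with SNAP-549-labelled MS2 coat protein in RNA-MaP buffer (100 mM Tris pH 7.5, 80 mM KCl, 4 mM MgCl2), without ligand or with the indicated ligand. Median apparent KD per design.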

[1] = input ligand: theophylline 20 uM
[2] = input ligand: tryptophan 2.4 mM
[3] = input ligand: theophylline 2 mM

Sequence	apparent KD of MS2 coat protein (input ligand: arginine 13.2 mM) [nM]	apparent KD of MS2 coat protein [1] [nM]	apparent KD of MS2 coat protein [2] [nM]	apparent KD of MS2 coat protein (input ligand: none) [nM]	apparent KD of MS2 coat protein [3] [nM]
GGCGGACUUAUAGAUACCAGCACAUGAGGAUCACCCAUGUUUGGUCGCACCUCAGUCCUGUGCCCUUGGCAGCUAUGAUAGAUUU [Leaatge]	16.9	33.4	16.1		
GUAAUUAUAAGAAGGAGCGUCGAAAAUGGGUAAACAUGAGGAUCACCCAUGUAAAGGGAACGACAGGUAGGUCGCUUAUGGUUAC [AstromonsSSArgB#24]	99.2	245	214	200	305
ACCUGUACGAAAAGUGCAGGACACGGAAUACGAGGACCGGUACGGCCGCCACUCGGAUAAAACCUGAGGAUCACCCUGGUCCGUG [TrypAS 14 #AlternativeMS2 #Zipper #StaticStem]	27.7	43.5	22.6	24.6	34.6
CGGGAACGAUAUGAUACCAGCCUGCGAAAGAAUGCUUAGUACAUGAGGAUCACCCAUGUAGGCCCUUGGCAGCAUCGACUCAAGU [theeternabot_exclusion_MS2_Theo_B_4]	13.1	18.1	13.2		
AUAAUAAAGACGGCCGCCACUAUAAACAUGAGGAACAUGAGGAUCACCCAUGUAUGAGGAUCACCUAGGACCGGGUCAAAUAUUA [AstrosExyTryB#3]	36	70.1	44.7	49.4	45.9
GCAUCCUAGUCGGCCGCCACUGCAACAUGAGGAUCACCCAUGUCAGGCCUCAUGUGUCCUGGUAGCAGGACCGGGACUAGGAUGC [(T1)-(M1)-(M2)-(T)''-(M)'-(T)'-(T2)_Design4_2/18/17]	34	47.1			52
AUAAUAAUACAUGAGGAUCACCCAUGUAUGCGAGGACCGGUACGGCCGCCACUCGACCUCAUGCAUACAUGAGGAUCACCCAUGU [Same State Tryptophan A 4]	18.4	55.8			67.2
UGUAUGGACUGAAGGAGCGCCUCAAAAUAACAUGAGGAUCACCCAUGUGGCGAAAGCCUUGGGCAGGUAGGUCGCAGUCCAUACU [ArgBX 1 #StaticStem]	62	76.2	52.9	49.9	72.1
UCAUAUUAGAUAGAUGUAAGGUAUCAUGAUACCAGUAGAUAAUUAUACCCUUGGCAGCAUAACAUGAGGAUCACCCAUGUACAUG [Aa]	20.3	22	17.9		
AUUGUGAAGUCGGCCGCCACUGCAUAGUUUAACCUCUUUUAACAUGAGGAUCACCCAUGUAAUGACAGGACCGGGACAAUAGUAA [JR_SSTryptoB_Sub022]	54.3	92.3			79.7
AGACAUGAGGAUCACCCAUGUAGUACGGAUACCAGAUCCAGAUGCGUCCCUUGGCAGCUGUAGUACAGCGUUACAUCGCUCAUAG [Exclusion - Theophylline A (Freestyle 25)]	21	44	36.4		
AUUCAUGGAAACAUGACAUACAUUACCGGUCGAGGACCGGUACGGCCGCCACUCGGUUGGUGGCACAUGAGGAUCACCCAUGUUA [SS Tryp A #11]	25.2	44.2			30
AAUUCCUCACAUGAGGAUCACCCAUGUGAAGGAGCGCCGAAUAAGGCAGGUAGGUCGCACAUGGAAACCGCUGCGAAAGCAGCAA [MAT - Exclusion Arginine A - Mod of Eli - D25]	21	33.2	24.5	21.7	25
AGUGUUAUAACUGAUACCAGACUCUCAUGUUUACAUGAGGAUCACCCAUGUUAUUUCUUUGUCCCUUGGCAGCAGAAUUUACACA [JR_SSTheophyB_Sub009]	142	298	343		
CGUAGUAUCAGACAUGAGGAUCACCCAUGUCGAGGACCGGUACGGCCGCCACUCGGCAGUUUGCGUCCUCAGGUACUCCAGGUAA [Larirexea]	14.8	27.9			26.1
UAUGCACAUGAGGAUCACCCAUGUAUGGAAGGAGCGGUGAAUGAACCAGGUAGGUCGCCAUGGUGAGGAUCAUCUAUGUAAUCGU [Exclusion - Arginine A (Freestyle 7)]	38.9	117	86.8	86	128
CUCCCGUGGUCGGCCGCCACUGGAGGCCUCGCGCGACAUGAGGAUCACCCAUGUUGGCCCGGCGUCAGGACCGGGAUCGCGUGAG [#1 Same State - Tryptophan B Attempt #9 (HarryS)]	11.8	10.3	10.8	11	12.1
AAUAGACAUGAGGAUCACCCAUGUAUGGAAGGAGCGGUGAAUAAGCCAGGUAGGUCGCCAGUGUGAGGGUUAUCUAUGUAAUAAA [#19 Exclusion - Arginine A]	27.4	41.6	40.8	38.4	35.7
ACAUGAGGAUCACCCAUGUAUGACUAUCCUCGAGGACCGGUACGGCCGCCACUCGAAGGAGUGGCUCGCGAGUGCGCACUUGCAA [5' end]	9.87	16.5	11.5	12.5	13.6

Sequence	apparent KD of MS2 coat protein (input ligand: arginine 13.2 mM) [nM]	apparent KD of MS2 coat protein [1] [nM]	apparent KD of MS2 coat protein [2] [nM]	apparent KD of MS2 coat protein (input ligand: none) [nM]	apparent KD of MS2 coat protein [3] [nM]
UUCUACAUGAGGAUCACCCAUGUGGGUGAUACCAGCACUUUUUGGUGCCCUUGGCAGCACAUGAGAAUGCCGUAAAAUCGGCGAU [Ceanteis]	74.7	577	503		
CGCUGGCCACAUGAGGAUCACCCAUGUGAAGGAGCGGCGAAUAAGCCAGGUAGGUCGCGCAUGAAUAAAUCAUGUAGGUUGCGAA [XArg-A 11 V2]	16.9	14.9	14.5	13.4	17.9
UGUAUGUGAUCUGAUACCAGAGUGACGCGAAAGCGAACCUGAGGAUCACCCUGGUAAUAACUCCCUUGGCAGCAGAUCGCAUACU	73.1	44.3	69.8	61.1	20.7
GACAUGAGGAUCACCCAUGUACCGCGAGAAGGAGCGCGGAUAAACGCAGGUAGGUCGCUCGUGGGCUUUUAUUCAAUCGAAAGCU [Zaesar]	26.8	106	48	50.5	165
UGUAUGGACUGAAGGAGCGGUUGAUAACAUGAGCAUCAGCCAUGUAAUAAGGCGAAAGCCAACCAGGUAGGUCGCAGUCCAUACU	8.26	12.5	14.8	9.68	9.11
GUCUUGGAAUCGGCCGCCACUACAUGAGGAUCACCCAUGUGGACAAAUAGGGUUUUUAAGCUCGGUAGGACCGGGAUUCGGACAU [Mamaon]	12.3	15.9	66	14.3	18
AAUGAGUGGUGGUCAAACAUGGGUGAUCAACGAGGACCGGUACGGCCGCCACUCGAUAACAUGAGGAUCACCCAUGUAAUAAUAA [|T'-M'-Trp-Ms2|_Design9]	55.5	492			683
GGAUAGGACACGGCCGCCACUAGCUAGGAUACUAGCAACAUUUCCUCACCUGAGGAUCACCCUGGUAGGACCGGGUGUCCUAUCG	134	569	394	353	1390
GAAGGAGAGUGAUCCACUCCUUCUCUGGAAGGAGCGAGCGAAAGCUCAGGUAGGUCGCCAGAAACAUGAGGAUCACCCAUGUAAU [(A)''-(M)'-(A)'-(Arg1)-(Arg2)-(M1)-(M2)_Design7]	61.2	92.6	82.3	104	123
AAUACCGGAUCGGCCGCCACUGGUUGGCCCUGUGUACAUGAGGAUCACCCAUGUCCAUCCCAGACCAGGACCGGGAUCUUUGUGU [Ingeraza]	15.6	20			18.5
UUGUGGUAGGCGCAUACUCAUUUAUACAAGCGAGGACCGGUACGGCCGCCACUCGGAAUAAAACAUGAGGAUCACCCAUGUACCG [theeternabot_exclusion_MS2_Trp_A_50]	12.9	17.1			14.6
UUUUAACAUGAGGAUCACCCAUGUAAUGAUACCAGAGACGAAAGUCUCCCUUGGCAGCAUAAUCAUUACAUGAGAUGGAAACAUC [Theophylline A 7]	29.2	48.5	17.5		
GCUACAUGAGGAUCACCCAUGUGUACUGAAGGAGCGGCGAAAACGCCAGGUAGGUCGCAGUAUGUGGCUCUGGGCACGAGAUGGC [#02 Same State - Arginine A]	27	40	30.5	37.3	41.3
AAUUCCUCACAUGAGGAUCACCCAUGUGAAGGAGCGCCGAAUAAGGCAGGUAGGUCGCACAUGGAAACCGCUACGAAAGUAGCAA	13.1	64.8	21.3	20.5	20.5
CCUGCUACGGGAAACCGUAGCAGGAAUGAUACCAGUAGGAAAGACUACCCUUGGCAGCAUGGGAAACAUGAGGAUCACCCAUGUU [SSThA NP+V+V2 #7 Same Structure]	37.1	76.3	50.8		
GUACAUGAGGAUCACCCAUGUAUAGUUGAAGGAGCGACCGGUGGGUCAGGUAGGUCGCAGCACAUGGCGUCAACCCGUGUAUGCC [#1 Exclusion - Arginine A Attempt #26 (Inspired by Pi)]	18.1	26.7	17.2	17.6	22.1
GGACCAGGGAGCGAUACCAGCUUGAGUGUGCUGGCCAGGCACAUGAGGAUCACCCAUGUAAGCCCUUGGCAGCGCUCCCUGGUCC [#1 Exclusion - Theophylline B Attempt #27 (HarryS)]	6.87	15.3	11.1	9.65	13.9
AAACGUUGCUGCGAUACCAGACAUGAGGAUCACCCAUGUACCAAGGUAAGAAAAUAACAUGUCCCUUGGCAGCGCAGCAACGAAA [MAT - Exclusion Theophlline B - Mod of Eli - D3]	17.5	43.6	15.6		
AUACAUGAGGAUCACCCAUGUCAUACAGAAGGAGCGUCACAUAAGACAGGUAGGUCGCUGAUAUAUACGUCACGAAUAGUGACGA [JR_SSArginiA_Sub017]	16.8	23.5	18.6	18.6	20.4
